Experimental data reported in patent US20100120675A1 (CONSEJO SUPERIOR DE INVESTIGACIONES CIENTIFICAS, published 2010).

T1: UDG enzyme of B. subtilis (Bacillus subtilis, UniProt P39615 1-225)
T1 construct: Endogenous enzyme of the B. subtilis 110NA extract, identified by peptide mass fingerprinting (MASCOT); also called UDG of B. subtilis; protein D
T1 sequence: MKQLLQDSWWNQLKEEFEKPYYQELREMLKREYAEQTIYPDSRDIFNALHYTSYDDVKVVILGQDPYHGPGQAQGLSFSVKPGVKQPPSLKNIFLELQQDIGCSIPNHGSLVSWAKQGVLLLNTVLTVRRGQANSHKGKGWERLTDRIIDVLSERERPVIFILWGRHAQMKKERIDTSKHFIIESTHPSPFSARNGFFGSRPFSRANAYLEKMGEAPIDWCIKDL

T2: UDG enzyme of E. coli (E. coli, UniProt P12295 2-229)
T2 construct: Commercial enzyme; also called UDG of E. coli (New England Biolabs)
T2 sequence: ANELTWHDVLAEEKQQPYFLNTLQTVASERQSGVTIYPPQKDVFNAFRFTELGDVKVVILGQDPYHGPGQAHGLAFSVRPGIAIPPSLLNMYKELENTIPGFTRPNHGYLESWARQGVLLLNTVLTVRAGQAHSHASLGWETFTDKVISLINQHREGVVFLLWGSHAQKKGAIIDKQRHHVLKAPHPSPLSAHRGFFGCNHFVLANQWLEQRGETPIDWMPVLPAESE


Assays:
[1] = target: T1, UDG enzyme of B. subtilis; experiment: affinity chromatography of B. subtilis 110NA[pPR53.p56FLAG] lysate on anti-FLAG M2 column, elution with FLAG peptide, SDS gel, peptide mass fingerprinting
Description: In order to analyse whether the UDG enzyme is a cellular target of protein p56, affinity chromatography assays were performed. […] The culture was concentrated 10-fold in TBS buffer (50 mM Tris-HCl, pH 7.5, 150 mM NaCl) and was lysed using the French press (20,000 psi). The lysate was centrifuged at 7,000 rpm and 4° C. in the Sorvall-SS.34 rotor for 10 minutes. The supernatant was loaded in an anti-FLAG M2 column (Sigma). The proteins bound to the column were eluted with the TBS buffer containing the FLAG peptide (500 μg/ml) (Sigma). […] The gel was stained with SyproRuby (Molecular Probes). As a negative control, an extract from the 110NA[pPR53] strain was used.

[2] = target: T2, UDG enzyme of E. coli; experiment: native polyacrylamide gel (16%) of p56 (2 µg) incubated with E. coli UDG (0.2 µg); Western blot and peptide mass fingerprinting of the band

Binder | binding result [1] | binding result [2]
protein p56FLAG (other, Produced constitutively in B. subtilis 110NA[pPR53.p56FLAG]; Captured from the cell lysate on an anti-FLAG M2 column) MVQNDFVDSYDVTMLLQDDDGKQYYEYHKGLSLSDFEVLYGNTADEIIKLRLDKVLDYKDDDDK | binds | –
protein p56 of the phi29 (φ29) bacteriophage (other, Untagged, purified as in section 1.4; also called protein of the invention) MVQNDFVDSYDVTMLLQDDDGKQYYEYHKGLSLSDFEVLYGNTADEIIKLRLDKVL | – | binds
